# The supplement of paper PMC7877785
# ± gives the uncertainty stated by the source.
# Assay: self-splicing fitness, log relative to wild type (ln ratio); higher = more splicing; Tetrahymena group I intron in knt gene, E. coli kanamycin selection, DiMSum; sequences stand for … in CUCUCU…GGAGGGAAAAGUUAUCAGGCAUGCACCUGGUAGCUAGUCUUUAAACCAAUAGAUUGCAUCGGUUUAAAAGGCAAGACCGUCAAAUUGCGGGAAAGGGGUCAACAGCCGUUCAGUACCAAGUCUCAGGGGAAACUUUGAGAUGGCCUUGCAAAGGGUAUGGUAAUAAGCUGACGGACAUGGUCCUAACCACGCAGCCAAGUCCUAAGUCAACAGAUCUUCUGUUGAUAUGGAUGCAGUUCACAGACUAAAUGUCGGUCGGGGAAGAUGUAUUCUUCUCAUAAGAUAUAGUCGGACCUCUCCUUAAUGGGAGCUAGCGGAUGAAGUGAUGCAACACUGGAGCCGCUGGGAACUAAUUUGUAUGCGAAAGUAUAUUGAUUAGUUUUGGAGUACUCGUGGUCG
# Outline: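 A randomised library covering all eight P1ex-region intron nucleotides was built with the intron in the knt kanamycin-resistance gene on pET-22b(+) and held in E. coli BL21(DE3). Cells were grown overnight at 37°C or 30°C on LB agar, with or without 25 μg/mL kanamycin, plus 100 μg/mL carbenicillin, 50 μM IPTG and 0.2% rhamnose, and pooled colonies were amplicon-sequenced on an Illumina HiSeq 2500. DiMSum fitness is the error-weighted combination of wild-type-normalised replicate fold changes, kanamycin versus none.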
Sequence,self-splicing fitness (ln) (30 °C),self-splicing fitness (ln) (37 °C)
UUGGAGCAAUAUUACGUAAU,-3.28 ± 0.19,-2.38 ± 0.31
CCGCAGCAAUAUUACGCAGA,-2.89 ± 0.2,-2.25 ± 0.17
UAGGAGCAAUAUUACGUUAA,-1.4 ± 0.28,-2.55 ± 0.39
GAACAGCAAUAUUACGCACA,-0.348 ± 0.082,-0.338 ± 0.094
CCCCAGCAAUAUUACGUCCA,-3.34 ± 0.19,-3.2 ± 0.28
AUAAAGCAAUAUUACGGAAC,-2.45 ± 0.26,-0.934 ± 0.19
UCUUAGCAAUAUUACGGCAA,–,-1.57 ± 0.37
GACCAGCAAUAUUACGCAAA,-1.75 ± 0.11,-0.859 ± 0.1
CCCAAGCAAUAUUACGCACG,-2.65 ± 0.17,-2.84 ± 0.43
CCUUAGCAAUAUUACGAACG,-0.742 ± 0.18,-0.847 ± 0.25
GCGUAGCAAUAUUACGCAGU,-4.05 ± 0.34,-2.28 ± 0.25
CGCCAGCAAUAUUACGCCUG,-1.21 ± 0.1,-0.608 ± 0.096
ACUGAGCAAUAUUACGAUUA,-3.39 ± 0.3,-1.78 ± 0.18
UGUCAGCAAUAUUACGACGG,-1.06 ± 0.076,-0.98 ± 0.092
AGGAAGCAAUAUUACGACCU,-2.74 ± 0.22,-2.29 ± 0.21
GGUGAGCAAUAUUACGGUCA,-1.77 ± 0.32,-1.79 ± 0.38
GUGGAGCAAUAUUACGGGUA,-2.09 ± 0.31,-2.4 ± 0.45
GACAAGCAAUAUUACGUCGA,-2.53 ± 0.09,-1.24 ± 0.078
GUCCAGCAAUAUUACGUGGG,-3.68 ± 0.13,-2.36 ± 0.14
CCCGAGCAAUAUUACGUUGC,-3.75 ± 0.12,-2.71 ± 0.16
CAACAGCAAUAUUACGAUUG,-2.22 ± 0.063,-1.42 ± 0.073
UGGGAGCAAUAUUACGGCGU,–,-0.706 ± 0.28
CCUCAGCAAUAUUACGCAUC,-2.68 ± 0.18,-2.85 ± 0.41
UCUUAGCAAUAUUACGGUGU,-2.83 ± 0.12,-1.23 ± 0.12

Sequence,self-splicing fitness (ln) (30 °C),self-splicing fitness (ln) (37 °C)
CGUAAGCAAUAUUACGGAAA,-3.62 ± 0.47,-2.39 ± 0.39
AUGCAGCAAUAUUACGGAAU,-2.37 ± 0.088,-0.752 ± 0.093
GCUUAGCAAUAUUACGCCCG,-1.04 ± 0.15,-0.534 ± 0.2
GCGUAGCAAUAUUACGGAGU,-2.88 ± 0.16,-1.44 ± 0.14
AUAAAGCAAUAUUACGCUUG,-0.77 ± 0.082,-0.368 ± 0.11
UCCAAGCAAUAUUACGACAA,-2.14 ± 0.13,-1.47 ± 0.1
UUAAAGCAAUAUUACGUGCA,-0.0172 ± 0.1,0.542 ± 0.13
CGAAAGCAAUAUUACGCGCC,-1.85 ± 0.21,0.0231 ± 0.24
CAACAGCAAUAUUACGCCCG,-0.408 ± 0.098,0.465 ± 0.12
UCAUAGCAAUAUUACGUAAA,-2.76 ± 0.19,-1.99 ± 0.21
CUGCAGCAAUAUUACGAUGG,-1.7 ± 0.08,-1.18 ± 0.1
AAGUAGCAAUAUUACGAUUC,-0.923 ± 0.12,-0.577 ± 0.15
UCGGAGCAAUAUUACGUGCC,-3.26 ± 0.34,-2.53 ± 0.45
UGCCAGCAAUAUUACGCAAG,-3.07 ± 0.24,-3.65 ± 0.46
ACUGAGCAAUAUUACGACUG,-3.2 ± 0.34,-1.68 ± 0.23
ACUAAGCAAUAUUACGGUAU,-3.24 ± 0.17,-1.73 ± 0.13
GGAAAGCAAUAUUACGAGGA,-2.88 ± 0.21,-1.93 ± 0.24
AAAGAGCAAUAUUACGGCGG,-3.05 ± 0.19,-2.21 ± 0.24
AAGAAGCAAUAUUACGGCGG,-0.903 ± 0.1,-0.664 ± 0.12
AUAAAGCAAUAUUACGAGGC,-3.29 ± 0.17,-2.7 ± 0.32
CAGUAGCAAUAUUACGUAUU,-3.48 ± 0.2,-1.81 ± 0.2
CUGCAGCAAUAUUACGCAUU,-4.22 ± 0.2,-2.21 ± 0.23
UGAUAGCAAUAUUACGCCAU,-2.82 ± 0.26,-3.2 ± 0.3
AGUCAGCAAUAUUACGUAGC,-2.97 ± 0.13,-0.778 ± 0.097

Sequence,self-splicing fitness (ln) (30 °C),self-splicing fitness (ln) (37 °C)
CACUAGCAAUAUUACGAGAC,-3.77 ± 0.46,–
GCUGAGCAAUAUUACGGUGG,-3.32 ± 0.22,-3.95 ± 0.37
CCUGAGCAAUAUUACGGGUC,-2.95 ± 0.17,-2.87 ± 0.27
CAUGAGCAAUAUUACGGUCC,-3.81 ± 0.37,–
ACUUAGCAAUAUUACGCGCG,-1.56 ± 0.11,-0.437 ± 0.12
GGCGAGCAAUAUUACGUUAU,-3.17 ± 0.17,-1.3 ± 0.16
AAACAGCAAUAUUACGACAC,-1.95 ± 0.15,-0.33 ± 0.15
AUGGAGCAAUAUUACGCCAU,-4.27 ± 0.46,-2.17 ± 0.34
GAAGAGCAAUAUUACGCUUC,-2.47 ± 0.34,-1.37 ± 0.18
UCUAAGCAAUAUUACGGCCG,-1.36 ± 0.34,0.444 ± 0.3
GGCUAGCAAUAUUACGAAAA,-1.06 ± 0.24,-1.33 ± 0.27
UUGCAGCAAUAUUACGUUUA,-1.31 ± 0.096,-1.02 ± 0.088
UACGAGCAAUAUUACGAUAC,-3.5 ± 0.19,-1.61 ± 0.13
GUAGAGCAAUAUUACGCUCG,-1.59 ± 0.13,-0.12 ± 0.16
GAAUAGCAAUAUUACGGGGA,-2.99 ± 0.19,-2.39 ± 0.19
CUAGAGCAAUAUUACGCACU,-4.52 ± 0.46,-1.99 ± 0.41
AGAGAGCAAUAUUACGGGCU,-3.62 ± 0.23,-1.48 ± 0.42
GGCGAGCAAUAUUACGGAGG,-2.52 ± 0.34,-1.9 ± 0.45
CAGAAGCAAUAUUACGAUGG,-0.534 ± 0.064,-0.254 ± 0.078
CUACAGCAAUAUUACGGUGC,-4.58 ± 0.28,-2 ± 0.17
CUAGAGCAAUAUUACGCGUA,-3.78 ± 0.2,-2.97 ± 0.26
GCGAAGCAAUAUUACGAGAA,-2.63 ± 0.46,-1.38 ± 0.26
AGCCAGCAAUAUUACGCCCC,-1.54 ± 0.24,0.277 ± 0.32
CACUAGCAAUAUUACGCAUA,-2.75 ± 0.2,-2.83 ± 0.24

Sequence,self-splicing fitness (ln) (30 °C),self-splicing fitness (ln) (37 °C)
UAUAAGCAAUAUUACGCACU,0.11 ± 0.12,-0.923 ± 0.12
CUUUAGCAAUAUUACGUCCA,-3.2 ± 0.41,-0.864 ± 0.24
AGUGAGCAAUAUUACGAGGA,-2.48 ± 0.32,-3.09 ± 0.35
CUGAAGCAAUAUUACGUGUA,-4.08 ± 0.24,-2.12 ± 0.2
UUCCAGCAAUAUUACGAAGG,-3.8 ± 0.22,-3.2 ± 0.37
UAAGAGCAAUAUUACGGGUU,-3.51 ± 0.29,-2.06 ± 0.31
GUGCAGCAAUAUUACGUGGU,-2.55 ± 0.078,-1.1 ± 0.091
ACAUAGCAAUAUUACGUUUC,-3.55 ± 0.23,-2.84 ± 0.3
UUUCAGCAAUAUUACGUAAC,-3.2 ± 0.23,-2.4 ± 0.27
GUACAGCAAUAUUACGGAGU,-3.06 ± 0.18,-1.88 ± 0.15
ACGGAGCAAUAUUACGAUGC,-3.69 ± 0.43,-1.74 ± 0.29
CAAUAGCAAUAUUACGACUG,-0.326 ± 0.063,-0.0987 ± 0.081
GGGGAGCAAUAUUACGCUAA,–,0.376 ± 0.38
GCCUAGCAAUAUUACGUUCG,-2.74 ± 0.15,-2.09 ± 0.19
GCGCAGCAAUAUUACGAAUU,-1.64 ± 0.14,-0.932 ± 0.22
CAUCAGCAAUAUUACGGGUC,-2.63 ± 0.11,-0.644 ± 0.1
AGGGAGCAAUAUUACGGGCU,-3.05 ± 0.27,-2.49 ± 0.3
GCCCAGCAAUAUUACGGUUG,-2.99 ± 0.12,-1.95 ± 0.11
UCCAAGCAAUAUUACGUCUC,-3.53 ± 0.32,-2.02 ± 0.46
CAUAAGCAAUAUUACGAGUA,-2.34 ± 0.15,-1.45 ± 0.15
UAUCAGCAAUAUUACGGGAU,-3.78 ± 0.24,-1.72 ± 0.14
CGACAGCAAUAUUACGUACU,-1.26 ± 0.082,-0.578 ± 0.089
CCGCAGCAAUAUUACGUAAU,-3.78 ± 0.15,-2.3 ± 0.19
ACGAAGCAAUAUUACGACCU,0.0549 ± 0.12,0.126 ± 0.13
